“Also recorded” adds a separate entry of the source.
Tests used:
[1] = system: primary adipocytes, myoblasts and hepatocytes; experiment: Insulin sensitizing effects of IGFBP-3 in cells treated with proteases and inhibitors (Example 7); type: cell-based; conditions: Example 7, written in present tense
Excerpt: The levels of the three NSPs and IGFBP-3 protease activity in sera from lean and obese mice fed with CD and HFD, respectively, for 16 weeks are investigated using Western immunoblotting, ELISAs and an IGFBP-3 protease activity assay. Further, the impact of PR3-induced proteolysis and inhibitors (Prolastin and a small peptide inhibitor) on insulin sensitizing effects of IGFBP-3 in primary adipocytes (Invitrogen/Life Technologies, Grand Islands N.Y.), myoblasts and hepatocytes (Eton Bioscience, Research Triangle Park, N.C.) is investigated. The cells are treated with IGFBP-3 or PR3 proteolyzed IGFBP-3 fragments with and without insulin, and analyzed for glucose uptake, levels of insulin receptor substrates (IRSs), glucose transporters (GLUTs), adiponectin (in adipocytes) and intracellular glycogen content (in hepatocytes) using a glucose uptake assay, qRT-PCR, Western immunoblotting and a glycogen assay kit. Further experiments are performed to treat cells with IGFBP-3 and PR3 in the presence and absence of Prolastin or the small peptide inhibitor(s) described herein. The inhibitory effects of NE and CG on IGFBP-3's insulin-sensitizing effects are also determined using similar laboratory methods. The involvement of IGFBP-3R on the insulin signaling pathway is also investigated by manipulating endogenous IGFBP-3R expression using IGFBP-3R siRNAs. […]

PR3 = biological target: T1, PR3 (Homo sapiens, UniProt P24158); experiment: In vitro IGFBP-3 proteolysis by PR3, Western immunoblotting; type: biochemical; conditions: for inhibition of PR3-induced IGFBP-3 proteolysis (Western immunoblot, in words): FIG. 8 and 9A
T1 sequence (P24158 28-248): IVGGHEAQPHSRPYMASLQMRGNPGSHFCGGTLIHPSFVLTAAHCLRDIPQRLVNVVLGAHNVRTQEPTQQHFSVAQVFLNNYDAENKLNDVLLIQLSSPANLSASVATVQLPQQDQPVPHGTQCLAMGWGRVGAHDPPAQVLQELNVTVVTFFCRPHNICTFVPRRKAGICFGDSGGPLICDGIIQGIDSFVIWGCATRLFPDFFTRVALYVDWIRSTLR
Procedure: FIG. 4A-B. A, increased serum PR3 and IGFPR-3 proteolysis in high fat diet (HFD) mice. The increased IGFBP-3 proteolytic fragments and PR3 were detected in HFD compared with chow diet (CD) fed mice by Western immunoblotting using mouse IGFBP-3 or PR3 specific antibodies. […] IGFBP-3 proteolytic fragments were detected in recombinant IGFBP-3 (100 ng) and PR3 (500 ng) treated samples by Western immunoblotting.
FIG. 8. […] Recombinant IGFBP-3 (100 ng) was proteolyzed by treatment with […] PR3 for 60 min. at 37° C. (lane 2).
(§1) FIG. 9A-C. Inhibitory effect of the small peptide on NSP-induced IGFBP-3 proteolysis. […] Recombinant IGFBP-3 (100 ng) was proteolyzed by treatment with 100 nM PR3 for 60 min at 37° C. (lane 3). […] B. In vitro IGFBP-3 proteolysis by NE and CG. […] Recombinant IGFBP-3 (100 ng) was proteolyzed by treatment with NE (70 nM) and CG (200 nM) for 20 min. at 37° C. The treated samples were subject to Western immunoblotting using polyclonal IGFBP-3 antibodies. NE and CG proteolyze IGFBP-3 (lanes 2 and 7). […] C. The sequence of small inhibitory peptide (LIRCAML). Putative small inhibitory peptide binding site on PR3 ([…]) and NE ([…]), of which sequences are well conserved in both PR3 and NE.
Since it has been reported that PR3 appears to contribute to progression of chronic inflammatory diseases, we characterized PR3 as a specific IGFBP-3 protease in obese condition. The experiments were carried out using recombinant PR3 and IGFBP-3, and Western immunoblotting with IGFBP-3 specific antibody.
This peptide and/or suitable variants thereof can thus be used to treat individuals with chronic inflammation (obesity)-induced insulin resistance.

NE = biological target: T2, NE (Homo sapiens, UniProt P08246); experiment: In vitro IGFBP-3 proteolysis by NE, Western immunoblotting; type: biochemical; conditions: recombinant IGFBP-3 100 ng; NE 70 nM, 20 min at 37° C.; FIG. 9B
T2 sequence (P08246 30-267): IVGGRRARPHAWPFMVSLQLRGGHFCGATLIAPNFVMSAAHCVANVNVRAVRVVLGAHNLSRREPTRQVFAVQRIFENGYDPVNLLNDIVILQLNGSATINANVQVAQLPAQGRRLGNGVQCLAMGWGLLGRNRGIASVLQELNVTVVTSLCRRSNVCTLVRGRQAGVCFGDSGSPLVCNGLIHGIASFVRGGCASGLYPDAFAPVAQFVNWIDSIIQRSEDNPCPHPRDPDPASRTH
Procedure: Inhibitory effect of the small peptide on NSP-induced IGFBP-3 proteolysis. […] B. In vitro IGFBP-3 proteolysis by NE and CG. […] Recombinant IGFBP-3 (100 ng) was proteolyzed by treatment with NE (70 nM) and CG (200 nM) for 20 min. at 37° C. The treated samples were subject to Western immunoblotting using polyclonal IGFBP-3 antibodies.

NSPs (PR3/NE/CG) = experiment: In vitro IGFBP-3 protease assay with NSPs and inhibitors (Example 5); type: biochemical; conditions: recombinant IGFBP-3, NSPs (PR3/NE/CG); example written in present tense
Excerpt: Since PR3, NE and CG appear to be involved in inflammation and metabolic disorders, all three proteases are characterized with respect to IGFBP-3 proteolysis in vitro.

CG = biological target: T3, CG (Homo sapiens, UniProt P08311); experiment: In vitro IGFBP-3 proteolysis by CG, Western immunoblotting; type: biochemical; conditions: recombinant IGFBP-3 100 ng; CG 200 nM, 20 min at 37° C.; FIG. 9B
T3 sequence (P08311 21-244): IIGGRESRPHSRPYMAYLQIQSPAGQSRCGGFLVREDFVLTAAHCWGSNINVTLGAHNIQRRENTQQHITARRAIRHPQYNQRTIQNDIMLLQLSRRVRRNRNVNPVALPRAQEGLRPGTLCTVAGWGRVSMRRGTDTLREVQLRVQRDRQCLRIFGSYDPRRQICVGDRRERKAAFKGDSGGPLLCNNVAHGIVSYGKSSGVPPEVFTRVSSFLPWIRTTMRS
Procedure: as §1

AOM-DSS-treated mice = experiment: CAC mouse model, AOM-DSS-treated mice (Example 10); type: in vivo; conditions: AAT 60 mg/kg once weekly, Example 10, written in present tense
Procedure: Studies are also carried out to determine whether administration of the NSP inhibitor (Aralast) inhibits progression of CRC in a CAC mouse model.
First, serum NSPs, IGFBP-3 and IGFBP-3 proteolysis are determined during CRC development in AOM-DSS-treated mice with/without Aralast administration (60 mg/kg body weight once weekly) (6 mice/group). Serum NSPs (PR3,NE,CG), IGFBP-3, and proteolyzed IGFBP-3 and cytokines ([…], IL-6, IL-1β) are analyzed biweekly using Western immunoblotting, IGFBP-3 protease activity assays and mouse specific ELISAs (ELISA kits for PR3 from USCN life science; NE from Biotang USA; CG from CusaBio; TNF-α from Thermo Scientific; and IGFBP-3 from Sigma).
After sacrificing, mice colons are removed and flushed with phosphate-buffered saline (PBS) for macroscopic inspection. Tumor counts are performed in a blinded fashion. Tumor volume (V) is calculated […] by measuring length (L) and width (W) of the tumor with calipers and using the following formula: V={W×L×[(W+L)/2]}×0.52. Using paraformaldehyde fixed or fresh frozen tissue the proteins/genes involved in cell proliferation and inflammatory signaling are examined using Ki67 staining, apoptosis detection kit (Roche Dignostics GmbH) as well as immunoblotting and qRT-PCR for TNF-α, IL-6, IL-1β, NF-κB, IκBκ, IGFBP-3 and IGFBP-3R. […]

HFD C57BL/6 mice = experiment: Insulin tolerance test (ITT) in HFD-induced obese mice (Example 6); type: in vivo; conditions: 60 mg/kg AAT for 7 weeks, 0.75 unit/kg insulin i.p., 15, 60, 90 and 120 min after insulin, p<0.05
Procedure: FIG. 10. Insulin tolerance test (ITT).
Assessment of body weight, fed and fasting glucose, intraperitoneal glucose tolerance test (IPGTT) and insulin tolerance test (ITT) were performed at 8, 15 weeks of HFD.
Weekly assessment of body weight was performed. IPGTT and ITT were analyzed at 8, 15 weeks of HFD.
Description of murine models: Six week old male C57BL6/J BomTac mice were obtained from Taconic, Hudson, N.Y., and kept at 22° C. on a 12:12-h light-dark cycle, with food and water ad libitum. All mice were placed on a normal rodent diet (ND) D12450B for 1 week and then divided into two groups and fed with ND and high fat diet (HFD) D12492 for 16 weeks. ND (D12450B, calories provided by fat 10%, protein 20%, Carbohydrate 70%) and HFD (D12492, calories provided by fat 60%, protein 20%, Carbohydrate 20%) were from Research Diets, new Brunswick, NJ52.
Insulin tolerance test (ITT): After a 7-day recovery period, an ITT was performed on the same mice. […]
Data Analysis: 1) Mice with HFD feeding and with/without NSP inhibitor treatments awere studied with assessment of body weight, fed and fasting glucose, IPGTT and ITT. Statistical analysis: Differences between groups are determined by ANOVA followed by Turkey post hoc tests or by Student t Test as appropriate. Significance is considered as p<0.05.

NSPs (PR3, NE, and CG) = experiment: NSP-induced IGFBP-3 proteolysis with inhibitors (Example 10); type: biochemical; conditions: Example 10, written in present tense
Excerpt: The biological impact of NSPs (PR3, NE, and CG) on IGFBP-3 proteolysis and the antitumor actions of IGFBP-3/IGFBP-3R signaling is investigated, e.g. to characterize specific mechanisms by which NSPs modulate the biologic impact of IGFBP-3/IGFBP-3R on cell proliferation, apoptosis in CRC. Accordingly, the impact of NSPs on the antitumor and anti-inflammatory functions of IGFBP-3 in a variety of colon cancer cells (HT-29, Caco-2, HCT116 and LoVo) is investigated using recombinant IGFBP-3 (intact or NSP-proteolyzed fragments), NSPs and their inhibitors. The involvement of IGFBP-3R on IGFBP-3's effects is tested by manipulating endogenous IGFBP-3R expression using additional lentiviral-IGFBP-3-GFP, IGFBP-3R siRNAs, Adeno-IGFBP-3R, NSPs and protease inhibitors in the same cell systems.
Human and mouse specific IGFBP-3 antibodies (Abs)20, IGFBP-3R Abs20, IGFBP-3 protease assay, and adeno-, retro- and lenti-viral plasmids transfused with IGFBP-3, IGFBP-3R or their small hairpin RNAs (shRNAs) are utilized in these investigations.
The differential impact of intact IGFBP-3 and IGFBP-3 fragments on induction of apoptosis, cell proliferation in CRC cells is quantified using a Cell death assay, WST assay and qRT-PCR and immunoblotting.

[2] = recombinant IGFBP-3 100 ng, 100 nM PR3, 60 min at 37° C.

| Compound | effect on protease-induced IGFBP-3 proteolysis and inhibition of IGFBP-3's normal metabolic function [1] | inhibition of IGFBP-3 proteolysis induced by 100 nM PR3 treatment (PR3; peptide at 0.5 μM, recombinant IGFBP-3 100 ng, 100 nM PR3, 60 min at 37° C.) | inhibitory effect on PR3 activity compared with AAT (PR3; peptide at 20 μM versus 100 nM AAT, 100 nM PR3) | inhibition of PR3-induced IGFBP-3 proteolysis (Western immunoblot, in words) (PR3; [2]) | inhibition of IGFBP-3 proteolysis by NE (in words) (NE) | NSP-induced proteolysis of IGFBP-3 (Example 5, in words) (NSPs (PR3/NE/CG)) | inhibition of IGFBP-3 proteolysis by CG (in words) (CG) | tumor incidence and size compared with untreated mice (AOM-DSS-treated mice) | inhibition of PR3-induced IGFBP-3 proteolysis (FIG. 4B, in words) (PR3; recombinant IGFBP-3 (100 ng) and PR3 (500 ng)) | blood glucose levels in ITT versus PBS control (HFD C57BL/6 mice) | NSP-induced proteolysis of IGFBP-3 (Example 10, in words) (NSPs (PR3, NE, and CG)) |
| --- | --- | --- | --- | --- | --- | --- | --- | --- | --- | --- | --- |
| CC(C)[C@@H]1C(=O)N(S(C)(=O)=O)[C@@H]2CCN(C(=O)/C=C/CN3CCCCC3)[C@H]21.Cl [GW311616A, reference compound] | reverse this effect |  |  |  |  |  |  |  |  |  |  |
| LIRCAML (Synthetic peptide inhibitor) | reverse this effect | more than 50% | comparable to that of 100 nM AAT | potent inhibitory effect; also recorded: inhibited IGFBP-3 proteolysis in a dose-dependent manner (0.5-20 μM); also recorded: inhibited IGFBP-3 proteolysis in a does-dependent manner (0.05-1 μM) | inhibited IGFBP-3 proteolysis by NE or CG in a dose-dependent manner (0.5-1 μM) | blocked | inhibited IGFBP-3 proteolysis by NE or CG in a dose-dependent manner (0.5-1 μM) |  |  |  |  |
| α-1-antitrypsin [AAT] |  |  |  | inhibited |  | blocked | inhibited | decreases tumor incidence and size | completely inhibited; also recorded: Few IGFBP-3 proteolytic fragments were detected | significantly lower | blocked |

— patent publication US20160011207A1, “DIAGNOSIS AND THERAPY OF CHRONIC INFLAMMATION-INDUCED DISORDERS” (VIRGINIA COMMONWEALTH UNIVERSITY, priority 2012, published 2016)
